Data taken from US20120277286A1, “COMPOSITIONS AND METHODS FOR THE TREATMENT OR PREVENTION OF MITOCHONDRIAL DISEASES” (The Government of the USA, as represented by the Secretary, …, priority 2009, published 2012).

How the values were obtained:
[1] = system: HeLa cells; assay: Parkin-induced mitophagy, loss of mitochondria by immunocytochemistry; type: cell-based; details: YFP-Parkin HeLa cells, 10 μM CCCP+10 mM 3-methyladenine or +100 nM Bafilomycin, 24 hours
Protocol: (§1) Cultured cells seeded in borosilicate chamber slides (Thermo Fisher Scientific) were transfected or cotransfected with YFP-Parkin, ECFP-Parkin, mCherry-Parkin, DsRed-Mito (Clontech Laboratories, Inc.), pcDNA3.1 (Invitrogen), vMIA, and/or Drp1K38A constructs using Fugene 6 (Roche). Parkin-myc was a gift from M. Cookson (National Institutes of Health, Bethesda, Md.). Cells were fixed 12-24 hours after transfection with 4% paraformaldehyde in PBS. Cells were stained with following primary antibodies: mouse monoclonal cytochrome c (BD), rabbit polyclonal Tom20 (Santa Cruz Biotechnology, Inc.), mouse monoclonal Parkin PRK8 (Santa Cruz Biotechnology, Inc.), rabbit polyclonal PMP70 (Invitrogen), and/or mouse monoclonal TRAP1 (Abcam); and with the following secondary antibodies: mouse and/or rabbit Alexa 488, 594, and 633 (Invitrogen). For assessment of mitochondrial membrane potential, cells were pulsed with 50 nM Mito-Tracker red (Invitrogen) for 15 min, washed, and incubated for an additional 10 minutes before fixation or imaging. For assessment of cell metabolic potential, cell nuclei were stained with Hoechst 33342 (Invitrogen).
(§2) Confocal microscopy of fixed samples, scoring of Parkin recruitment and Parkininduced mitophagy, and live cell imaging were performed as described previously (Narendra (2008) J Cell Biol 183: 795-803). Experiments in Mfn1/2 null cells were performed as described previously with minor modifications.
as §2, with “Parkin-induced” for “Parkininduced”, “imageing” for “imaging”, “modifications described in the supplemental methods (Narendra (2008) J Cell Biol 183: 795-803).” for “modifications.”

[2] = system: PINK1; assay: PINK1 accumulation by fractionation and immunoblotting; type: cell-based; details: HeLa cells, mitochondrial membrane fraction; 10 μM CCCP or 1 μM valinomycin
Excerpt: (§3) For PINK1 experiments, cells were fractionated using the Mitochondria Isolation Kit (Pierce), according to manufacturer's specifications with slight modifications. To isolate integral membrane proteins, membrane fractions obtained as above were carbonate extracted with 0.1M Na2CO3 fresh cold buffer and membranes were pelleted, as described in the supplemental methods. For Parkin experiments, cells were fractionated as described previously, with minor modifications described in the supplemental methods (Narendra (2008) J Cell Biol 183: 795-803). The following primary antibodies were used: anti-Parkin (PRK8) monoclonal (Santa Cruz), anti-Tom20 polyclonal (Santa Cruz), anti-cytochrome c monoclonal (BD Biosciences), anti-PINK1 polyclonal (Novus Biologicals), anti-VDAC monoclonal (Calbiochem), anti-GAPDH polyclonal (Sigma-Aldrich), anti-Tubulin monoclonal (Sigma-Aldrich), anti-V5 monoclonal (Invitrogen), anti-GFP polyclonal (Invitrogen).
as §3, with “with slight modifications described in the supplemental methods. To isolate” for “with slight modifications. To isolate”, “minor modifications detailed in the” for “minor modifications described in the”, “supplemental methods (Narendra (2008) J Cell Biol 183: 795-803). The protease protection assay was performed as described previously (Chen (2005) J Biol Chem 280: 26185-26192). Cells were fixed and immunostained as described previously (Narendra (2008)” for “supplemental methods (Narendra (2008)”, “anti-GFP polyclonal (Invitrogen), anti-TIM23 monoclonal (BD Biosciences), and anti-Hsp60 monoclonal (Stressgen).” for “anti-GFP polyclonal (Invitrogen).”

[3] = system: PINK1+/+ or PINK1−/− MEFs; assay: YFP-Parkin recruitment to mitochondria in MEFs; type: cell-based, mouse; details: PINK1−/− primary MEFs expressing the PINK1 construct, 20 μM CCCP, 3 hours
Excerpt: HeLa YFP-Parkin, PINK1+/+ SV40 transformed MEFs cells, PINK1−/− SV40 transformed MEF, M17 neuroblastoma control shRNA, M17 neuroblastoma PINK1, and Mfn1/2−/− MEF cell lines have been described previously (Narendra (2008) J Cell Biol 183: 795-803). PINK1+/+ and PINK1−/− primary MEFs were isolated from embryos using a standard protocol (Gautier (2008) Proc Natl Acad Sci USA 105: 11364-11369). Parkin+/+ and Parkin−/− transformed MEFs were created by isolation of primary cells from embryos of B6.129S4-Park2tm1Shn/J mice (Jackson Labs), using a standard protocol (Gautier (2008) Proc Natl Acad Sci USA 105: 11364-11369), followed by retroviral transduction of SV40 (Applied Biological Materials, Inc.). YFP-Parkin, YFPParkin mutants, mCherry-Parkin, PINK1-YFP, PINK1 KD-YFP, PINK1 Δ1-110-YFP, and Opa3-PINK1 Δ1-110-YFP are in C1 or N1 Clontech vectors. PINK1WT-V5, PINK1 KD-V5, and PINK1 Δ1-156-V5 are in pDest40 vector (Invitrogen). PINK1 patient mutations are in pLenti-V5 vector (Invitrogen). PINK1-myc is in a pCMBTNT vector (Promega).
as §2
HeLa YFP-Parkin, E18 Rat cortical neurons, PINK1^+/+ SV40 transformed MEFs cells, PINK1^−/− SV40 transformed MEF, M17 neuroblastoma control shRNA, M17 neuroblastoma PINK1, Mfn1/2^−/− MEF, and Parl^−/− MEF cell lines have been described previously (Narendra (2008) J Cell Biol 183: 795-803). PINK1^+/+ and PINK1^−/− primary MEFs were isolated from embryos using a standard protocol (Gautier (2008) Proc Natl Acad Sci USA 105: 11364-11369). Parkin^+/+ and Parkin^−/− transformed MEFs were created by isolation of primary cells from embryos of B6.129S4-Park2^tm1Shn/J mice (Jackson Labs), using a standard protocol (Gautier (2008) Proc Natl Acad Sci USA 105: 11364-11369), followed by retroviral transduction of SV40 (Applied Biological Materials, Inc.). YFP-Parkin, YFP-Parkin mutants, mCherry-Parkin, PINK1-YFP, PINK1 KD-YFP, PINK1 Δ1-110-YFP, and Opa3-PINK1 Δ1-110-YFP are in C1 or N1 Clontech vectors. PINK1WT-V5, PINK1 KD-V5, and PINK1 Δ1-156-V5 are in pDest40 vector (Invitrogen). PINK1 patient mutations are in the pLenti-V5 vector (Invitrogen). PINK1-myc is in a pCMBTNT vector (Promega). The PARL shRNA construct targeting (5′ […] 3′) is in the pSuper-GFP vector. To make FRB-PINK1 (111-581)-YFP and Tom20 (1-33)-FKBP, PCR fragments containing PINK1 (111-581)-YFP and Tom20 (1-33) were cloned into the BamHI site of the pC4-RHE vector and the EcoRI and XbaI sites of pC4M-F2E vectors, respectively (ARIAD Pharmaceuticals). The rapamycin analogue AP21967 was obtained from ARIAD Pharmaceuticals. The PARL shRNA construct targeting (5′ […] 3′) is in the pSuper-GFP vector (OligoEngine).
as §2, with “Parkin-induced” for “Parkininduced”, “imageing” for “imaging”, “modifications described in the supplemental methods (Narendra (2008) J Cell Biol 183: 795-803).” for “modifications.”

[4] = system: HeLa cells; assay: Parkin in mitochondria-rich membrane fraction, immunoblot; type: cell-based; details: HeLa, CCCP 1 hr, Western blotting
Excerpt: as §3
as §3, with “with slight modifications described in the supplemental methods. To isolate” for “with slight modifications. To isolate”, “minor modifications detailed in the” for “minor modifications described in the”, “supplemental methods (Narendra (2008) J Cell Biol 183: 795-803). The protease protection assay was performed as described previously (Chen (2005) J Biol Chem 280: 26185-26192). Cells were fixed and immunostained as described previously (Narendra (2008)” for “supplemental methods (Narendra (2008)”, “anti-GFP polyclonal (Invitrogen), anti-TIM23 monoclonal (BD Biosciences), and anti-Hsp60 monoclonal (Stressgen).” for “anti-GFP polyclonal (Invitrogen).”

[5] = system: HeLa cells; assay: Parkin colocalization with mitochondria scored by confocal microscopy; type: cell-based; details: HeLa
Protocol: as §1
Fixed cells and live cells in the FLIP assay were imaged using an inverted microscope (LSM510 Meta; Carl Zeiss, Inc.) with a 63×/1.4 oil DIC Plan Apo objective at 25° C. and 37° C., respectively. For the FLIP assay, a bleach region of interest (ROI) occupying approximately one eighth of the cell was positioned over a relatively mitochondria-free portion of the cytosol. Cells were alternately bleached (488 nm using a 30-mW argon laser at 75% power and 100% transmission for 150 iterations) and imaged (488 nm at 75% power and 2% transmission) for 10 minutes (—60 cycles over the length of the experiment). Two channel prebleach and postbleach images were obtained with 488 and 594 lasers to assess the position of mitochondria before and after bleaching. Circular ROIs with diameters of ˜1 and 5 μm, respectively, were placed over the mitochondria and cytosol of the target cell, and an ROI of 10 μm was placed over the control cell. Imaging of YFP-Parkin translocation in live HeLa cells was performed on a live cell imager system (UltraView LCI; PerkinElmer) at 35° C. with a 100×/1.45 α-Plan-Fluor objective.
Image contrast and brightness were adjusted in Photoshop (Adobe). Colocalization was assessed with line scans using MetaMorph (MDS Analytical Technologies). For analysis of mitochondrial membrane potential in cells, mitochondrial voxels in each image (the cytochrome c channel threshold was ≧400 au) were segregated into Parkin-positive (the YFP-Parkin channel threshold was ≧1,100 au) or Parkin-negative subsets, and MitoTracker intensity for each voxel was measured using Volocity software (Improvision). For each cell, the mean MitoTracker intensity per voxel was calculated for the Parkin-positive and Parkin-negative subsets. The difference in mean Mito-Tracker intensity between the Parkin-positive and Parkin-negative subsets was calculated using a paired t test. Western blotting HeLa cells stably expressing YFP-Parkin, HEK293 cells, and rat cortical neurons 2 days in vitro were harvested and fractionated as described previously (Karbowski et al., J. Cell Biol. 178: 71-84, 2007). Samples were run on SDS-PAGE and immunoblotted with the following antibodies: polyclonal rabbit anti-GFP (Invitrogen), mouse monoclonal anti-Parkin (PRK8), and mouse monoclonal anti-Porin 31HL (EMD).
as §2
Confocal microscopy of fixed samples, scoring of Parkin recruitment and Parkin-induced mitophagy, and live cell imageing were performed as described previously (Narendra (2008) J Cell Biol 183: 795-803). […]

Cn1cnc(N)c2ncnc1-2 [3-methyl adenine, reference compound]
effect on Parkin-induced mitophagy [1]: blocked

CO/C1=C\C(C)=C\[C@@H](C)[C@@H](O)[C@@H](C)C/C(C)=C/C=C/[C@H](OC)[C@@H]([C@@H](C)[C@@H](O)[C@H](C)[C@@]2(O)C[C@@H](O)[C@H](C)[C@@H](C(C)C)O2)OC1=O [bafilomycin, reference compound]
effect on Parkin-induced mitophagy [1]: blocked

CC(C)[C@@H]1NC(=O)[C@H](C)OC(=O)[C@@H](C(C)C)NC(=O)[C@@H](C(C)C)OC(=O)[C@H](C(C)C)NC(=O)[C@H](C)OC(=O)[C@@H](C(C)C)NC(=O)[C@@H](C(C)C)OC(=O)[C@H](C(C)C)NC(=O)[C@H](C)OC(=O)[C@@H](C(C)C)NC(=O)[C@@H](C(C)C)OC1=O [valinomycin]
endogenous full length PINK1 (˜63 kDa) level after depolarization [2]: increased

B1: G411S: PINK1 polymorphism, V5-tagged (protein, UniProt Q9BXM7 78-581, looked up, variant G411S)
Serine/threonine-protein …: AARLQRQFVVRAWGCAGPCGRAVFLAFGLGLGLIEEKQAESRRAVSACQEIQAIFTQKSKPGPDPLDTRRLQGFRLEEYLIGQSIGKGCSAAVYEATMPTLPQNLEVTKSTGLLPGRGPGTSAPGEGQERAPGAPAFPLAIKMMWNISAGSSSEAILNTMSQELVPASRVALAGEYGAVTYRKSKRGPKQLAPHPNIIRVLRAFTSSVPLLPGALVDYPDVLPSRLHPEGLGHGRTLFLVMKNYPCTLRQYLCVNTPSPRLAAMMLLQLLEGVDHLVQQGIAHRDLKSDNILVELDPDGCPWLVIADFGCCLADESIGLQLPFSSWYVDRGGNSCLMAPEVSTARPGPRAVIDYSKADAWAVGAIAYEIFGLVNPFYGQGKAHLESRSYQEAQLPALPESVPPDVRQLVRALLQREASKRPSARVAANVLHLSLWGEHILALKNLKLDKMVGWLLQQSAATLLANRLTEKCCVETKMKMLFLANLECETLCQAALLLCSWRAAL
modifications: V5 tag
notes: PINK1 polymorphism, V5-tagged
YFP-Parkin recruited to mitochondria, % of cells [3]: 74.2±5.4%

B2: C332S: YFP-Parkin engineered mutation in conserved RING cysteine (protein, UniProt O60260 1-465, looked up, variant C332S)
E3 ubiquitin-protein ligase …: MIVFVRFNSSHGFPVEVDSDTSIFQLKEVVAKRQGVPADQLRVIFAGKELRNDWTVQNCDLDQQSIVHIVQRPWRKGQEMNATGGDDPRNAAGGCEREPQSLTRVDLSSSVLPGDSVGLAVILHTDSRKDSPPAGSPAGRSIYNSFYVYCKGPCQRVQPGKLRVQCSTCRQATLTLTQGPSCWDDVLIPNRMSGECQSPHCPGTSAEFFFKCGAHPTSDKETSVALHLIATNSRNITCITCTDVRSPVLVFQCNSRHVICLDCFHLYCVTRLNDRQFVHDPQLGYSLPCVAGCPNSLIKELHHFRILGEEQYNRYQQYGAEECVLQMGGVLSPRPGCGAGLLPEPDQRKVTCEGGNGLGCGFAFCRECKEAYHEGECSAVFEASGTTTQAYRVDERAAEQARWEAASKETIKKTTKPCPRCHVPVEKNGGCMHMKCPQPQCRLEWCWNCGCEWNRVCMGDHWFDV
modifications: YFP fusion
notes: YFP-Parkin engineered mutation in conserved RING cysteine
translocation of YFP-Parkin variant to mitochondria-rich membrane fraction [4]: No membrane translocation was detectable | recruitment of mutant YFP-Parkin to mitochondria ([5]; 10 μM CCCP, 24 hours): Mitochondrial recruitment was seen | recruitment of mutant YFP-Parkin to depolarized mitochondria ([5]; CCCP 1 hr): completely disrupt
